Assay results published in patent publication US20090203610A1, “METHODS OF TREATING OBESITY OR DIABETES USING NT-4/5” (RINAT NEUROSCIENCE CORPORATION, priority 2004, published 2009).

Key:
[1] = molecular target: T1, human TrkC (Homo sapiens, UniProt Q16288); experiment: Receptor tyrosine phosphorylation in trkC expressing cell line; assay type: cell-based
T1 construct: expressed in transfected cells
Excerpt: (§1) Assays of TrkB specific activation by pegylated NT-4/5: Stable cell lines expressing human TrkA, TrkB or TrkC were used to determine the functional activity, i.e. receptor phosphorylation, of NT-4/5 and pegylated NT-4/5 as previously described (Sadick et al. Experimental Cell Research 234: 354-361, 1997).
as §1, with “and different forms of” for “and”

[2] = system: DIO mice; experiment: Glucose, triglyceride and oral glucose tolerance in DIO mice (Example 5); assay type: in vivo; conditions: 2 and 10 mg/kg
Description: (§2) Test animals: Mice with diet induced obesity (DIO) from Jackson Laboratory were used in this study. El-Haschimi, J. Clin. Invest. 105:1827-1832 (2000); Steppan, Nature 409:307-312 (2001). 23 male C57BL/6J mice were weaned at 4 weeks of age. Immediately after weaning they were put on about 58% high fat diet ([…], Research Diet) through out the study. The DIO mice at 13 weeks of age weighing in the range of 28-40 g were used in this study. Older mice at 22-24 weeks of age were also used.
(§3) Administration of NT-4/5: NT-4/5 used in this study was obtained from Genentech. The mice were divided into 3 groups of equivalent body weight and baseline blood glucose distribution (7-8 mice per group). Each group received from day 1 to day 5, from day 8 to day 12, from day 15 to 16 a daily subcutaneous dose of either vehicle, 2 mg/kg or 10 mg/kg of NT-4/5, respectively. Five days prior to the treatment started (day −5), a baseline blood samples were collected for measuring glucose and triglyceride. Subsequent to the treatment started (day 1), blood glucose and triglyceride were measured once a week. Body weight, food intake were monitored 5 days per week through out the entire study. From days 57-59, the DIO mice received a daily injection of NT-4/5 at 2 or 10 mg/kg respectively. They were fasted overnight (for 16 hours) before fasting glucose levels were measured and the oral glucose tolerance test was conducted with a load of 2 grams of glucose/kg of body weight.

[3] = system: DIO mice; experiment: Body weight and food intake in high fat diet-induced obese (DIO) mice (Example 5); assay type: in vivo; conditions: 2 and 10 mg/kg s.c.; P<0.001; dose dependent
Description: as §2
as §3, with “From days 57-59, the DIO mice received a daily injection of NT-4/5 at 2 or 10 mg/kg respectively.” left out

[4] = system: NONcNZO-10 polygenic obese mice; experiment: Food intake in NONcNZO-10 mice (Example 4, Table 20); assay type: in vivo
Excerpt: Test animals: 40 male NONcNZO-10 polygenic obese mice obtained from Jackson Laboratory at 10 weeks of age weighing in the range of 26-32 g were used in this study.
Administration of NT-4/5: NT-4/5 was produced in E. coli as descried in U.S. Pat. No. 6,184,360. The mice were divided into 6 groups of equivalent body weight and baseline blood glucose distribution (6-7 mice per group). […] A “paired-fed” control group received daily injection of vehicle, but were only fed with the same amount of food the 3 mg/kg group consumed the previous day. On the day when the treatment started (day 1), a baseline blood samples were collected for measuring glucose and triglyceride. Triglyceride level was measured on day 10. At the end of the study (day 12), a terminal blood sample was collected to determine glucose, triglyceride, electrolytes (Na, K, Cl), testoterone, corticosterone, thyroid hormone (total T4) and thyroid stimulating hormone (TSH) levels. Electrolytes, free testosterone, T4 and TSH levels of serum samples were measured by AniLytics (Gaithesburg, M.D) according to the standard protocols employed by the vendor. Other analytes were measured as described above. Body weight, food intake were monitored 5 days per week through out the entire study. Daily water intake was measured from day 5 through day 7.

[5] = system: NONcNZO-10 polygenic obese and diabetic mice; experiment: Body weight after intravenous NT-4/5 in NONcNZO-10 mice (Example 3); assay type: in vivo; conditions: i.v. 1 mg/kg
Description: Experiment was also performed on the same type of mice by intravenous injection of vehicle (PBS) and NT-4/5 (1 mg/kg) on day 1 and on day 5. About 5% to about 10% reduction of body weight was observed between NT-4/5 treated group and vehicle group between day 2 and day 15.

[6] = molecular target: T2, human TrkA (Homo sapiens, UniProt P04629); experiment: Receptor tyrosine phosphorylation in trkA expressing cell line; assay type: cell-based
T2 construct: expressed in transfected cells
Excerpt: as §1
as §1, with “and different forms of” for “and”

[7] = system: DIO mice; experiment: Body weight after intravenous NT-4/5 in DIO mice, separate study (Example 5); assay type: in vivo; conditions: i.v. 5 mg/kg on day 1 and day 4
Excerpt: Two way ANOVA followed by Bonferroni's post-test were used for statistical analysis.

[8] = system: DIO mice; experiment: Weekly intravenous pegylated G1S NT-4/5 versus WT NT-4/5 on body weight and food intake in DIO mice (Example 8); assay type: in vivo
Excerpt: Test animals: Mice with diet induced obesity (DIO) were used in this study. 29 male C57BL/6J mice were weaned at 4 weeks of age. Immediately after weaning, they were put on 58% high fat diet (D12331i, Research Diet) through out the study. The DIO mice at 13 weeks of age weighing in the range of 28-40 g were used in this study.
Administration of NT-4/5 and pegylated NT-4/5: NT-4/5 was obtained from Genentech Inc. or produced as described in U.S. Pat. No. 6,184,360. Pegylated NT-4/5 was produced as follows: A mutation was introduced by changing the glycine 1 position of mature human NT-4/5 sequence to serine, resulting in a mutant form of NT-4/5 (NT4-G1S). NT4-G1S protein was expressed in E. coli, solubilized, extracted, purified and refolded as described above. Refolded NT4-G1S was dialyzed into 50 mM sodium phosphate buffer at pH 6.8 and treated with 1.5 molar excess sodium meta-periodate for 10 minutes to oxidize the N-terminal serine (or threonine) residue to an aldehyde. Remaining periodate was removed by dialysis against 30 mM sodium acetate at pH 4.5. The exact concentration of NT4-G1S was determined and a 2 to 4 fold molar excess of 20K-m-PEG-HZ (methoxy polyethylene glycol hydrazide) was added. The reaction was incubated at 37° C. for several days with gentle agitation. Unconjugated PEG, pegylated NT4-G1S and non-pegylated NT4-G1S were separated via ion exchange or size exclusion chromatography.
The mice were divided into 3 groups of equivalent body weight and baseline blood glucose distribution (7-8 mice per group). Each group received four weekly intravenous doses (on day 1, 8, 15 and 22) of either vehicle, 2 mg/kg of NT-4/5 or 2 mg/kg of pegylated G1S NT-4/5 respectively. Body weight and food intake were monitored 5 days per week through out the entire study.

[9] = DIO mice 12-16 weeks of age, not diabetic
[10] = DIO mice 22-24 weeks of age, overt diabetes

T1 sequence (Q16288 32-839): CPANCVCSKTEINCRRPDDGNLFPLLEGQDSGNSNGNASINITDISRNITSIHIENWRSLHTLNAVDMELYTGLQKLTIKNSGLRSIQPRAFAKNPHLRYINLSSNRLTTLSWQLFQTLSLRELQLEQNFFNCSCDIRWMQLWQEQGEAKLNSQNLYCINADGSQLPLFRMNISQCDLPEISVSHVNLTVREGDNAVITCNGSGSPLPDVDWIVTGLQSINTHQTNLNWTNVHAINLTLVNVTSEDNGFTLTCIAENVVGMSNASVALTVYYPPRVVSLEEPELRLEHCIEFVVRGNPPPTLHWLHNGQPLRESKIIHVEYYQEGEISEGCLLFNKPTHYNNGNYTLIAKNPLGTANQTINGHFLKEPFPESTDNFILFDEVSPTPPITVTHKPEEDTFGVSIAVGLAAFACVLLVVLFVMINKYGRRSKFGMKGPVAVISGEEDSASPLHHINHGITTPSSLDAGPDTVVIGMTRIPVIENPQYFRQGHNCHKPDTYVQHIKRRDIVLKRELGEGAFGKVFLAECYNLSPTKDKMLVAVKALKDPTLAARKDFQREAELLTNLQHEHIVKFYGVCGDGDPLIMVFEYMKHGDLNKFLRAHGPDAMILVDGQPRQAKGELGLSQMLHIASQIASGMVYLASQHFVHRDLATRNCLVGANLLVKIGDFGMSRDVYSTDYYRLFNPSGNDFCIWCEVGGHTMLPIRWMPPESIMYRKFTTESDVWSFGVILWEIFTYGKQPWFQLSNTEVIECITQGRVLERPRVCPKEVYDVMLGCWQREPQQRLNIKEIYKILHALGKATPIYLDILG
T2 sequence (P04629 33-796): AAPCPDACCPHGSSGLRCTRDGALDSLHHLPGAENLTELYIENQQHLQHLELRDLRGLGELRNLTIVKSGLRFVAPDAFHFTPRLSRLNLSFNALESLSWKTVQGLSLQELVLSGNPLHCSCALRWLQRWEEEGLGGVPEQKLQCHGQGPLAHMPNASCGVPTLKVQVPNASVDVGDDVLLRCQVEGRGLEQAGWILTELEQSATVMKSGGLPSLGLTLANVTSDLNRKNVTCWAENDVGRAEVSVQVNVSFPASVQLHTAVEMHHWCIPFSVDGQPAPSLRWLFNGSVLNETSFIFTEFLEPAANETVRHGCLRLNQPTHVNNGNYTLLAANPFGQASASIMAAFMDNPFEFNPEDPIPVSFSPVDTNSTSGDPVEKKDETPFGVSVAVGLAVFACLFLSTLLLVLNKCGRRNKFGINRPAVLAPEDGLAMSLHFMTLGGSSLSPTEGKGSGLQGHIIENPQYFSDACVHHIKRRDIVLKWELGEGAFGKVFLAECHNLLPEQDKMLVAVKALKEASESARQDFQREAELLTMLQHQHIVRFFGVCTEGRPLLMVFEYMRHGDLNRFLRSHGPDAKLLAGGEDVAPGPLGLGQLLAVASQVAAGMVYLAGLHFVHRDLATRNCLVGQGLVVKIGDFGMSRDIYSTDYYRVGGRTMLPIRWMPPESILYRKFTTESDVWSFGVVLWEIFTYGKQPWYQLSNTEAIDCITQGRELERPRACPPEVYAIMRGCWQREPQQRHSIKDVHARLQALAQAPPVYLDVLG

B1: NT-4/5: mature human neurotrophin-4/5 (SEQ ID NO:1), obtained from Genentech or produced in E. coli (protein, listed as Homo sapiens)
chain: GVSETAPASRRGELAVCDAVSGWVTDRRTAVDLRGREVEVLGEVPAAGGSPLRQYFFETRCKADNAEEGGPGAGGGGCRGVDRRHWVSECKAKQSYVRALTADAQGRVGWRWIRIDTACVCTLLSRTGRA
receptor tyrosine phosphorylation of trkC-expressing cell line [1]: did not increase receptor tyrosine phosphorylation
non-fasting glucose levels [2, 9]: did not affect
non-fasting triglyceride levels [2, 9]: did not affect
fasting glucose level [2, 10]: significantly reduced fasting glucose level
glucose tolerance [2, 10]: improved glucose tolerance
body weight [3]: significantly reduced
food intake [3]: significantly reduced
food intake ([4]; 3 mg/kg): a significant reduction in food intake
food intake ([4]; dose dependent manner): reduced
time body weight reduction maintained after 2 staggered intravenous doses [5]: up to 10 days
receptor tyrosine phosphorylation of trkA-expressing cell line [6]: did not increase receptor tyrosine phosphorylation
reduction of body weight [7]: about 5%
time reduced body weight maintained after the second dose [7]: at least 10 days
body weight, pairwise difference with the vehicle control group ([8]; 2 mg/kg i.v. on day 1, 8, 15, 22, Bonferroni posttests): significant pairwise differences
body weight with long term weekly dosing ([8]; 2 mg/kg i.v. weekly): more effective in maintaining lower body weight
